Measurements published in patent US20240092919A1 (Ablynx, published 2024).
Residue numbers refer to the chain shown, from its start. Values belong to the binder of their own block, whether it stands above or below them.

Target: T1, Cynomolgus TCR(AEA41865/AEA41866)-zipper protein (cynomolgus monkey)
T1 construct: also called cyTCR-zipper protein; cynoTCR zipper
T1 TCR alpha: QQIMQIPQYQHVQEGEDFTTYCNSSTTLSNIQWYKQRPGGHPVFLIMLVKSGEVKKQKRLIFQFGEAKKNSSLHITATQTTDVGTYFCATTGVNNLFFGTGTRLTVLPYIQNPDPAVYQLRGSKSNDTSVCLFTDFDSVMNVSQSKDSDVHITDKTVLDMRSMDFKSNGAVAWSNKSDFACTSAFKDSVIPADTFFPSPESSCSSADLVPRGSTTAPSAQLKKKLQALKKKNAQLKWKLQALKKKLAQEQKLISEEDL
T1 TCR beta: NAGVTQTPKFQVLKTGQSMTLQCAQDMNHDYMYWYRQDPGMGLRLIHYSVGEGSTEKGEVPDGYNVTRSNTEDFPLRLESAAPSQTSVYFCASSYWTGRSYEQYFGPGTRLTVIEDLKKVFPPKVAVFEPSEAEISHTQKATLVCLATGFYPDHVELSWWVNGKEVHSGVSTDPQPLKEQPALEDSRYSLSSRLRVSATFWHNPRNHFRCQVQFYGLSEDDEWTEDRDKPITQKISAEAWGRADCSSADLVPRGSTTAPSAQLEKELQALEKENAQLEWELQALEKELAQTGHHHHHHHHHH
Assay: SPR ProteOn off-rate screen
Excerpt: Unique ISVD clones, i.e. clones with a unique sequence, were subsequently selected and screened to determine their off-rate. To this purpose, the ISVD containing periplasmic extracts were screened on huTCR-zipper and cyTCR-zipper protein by SPR on a ProteOn XPR36 instrument. The zipper proteins were immobilized on a GLC sensor chip (between 4300 and 5100RU) via amine coupling chemistry, using EDC/sulfo-NHS for activation of the carboxyl groups on the chip surface (running buffer: HBS-EP+, pH7.4). Periplasmic extracts were injected at 1/10 dilution for 2 min (at a flow rate of 45 μL/min) and dissociation was followed for 900 s. A pulse of 100 s of 3 M MgCl2 at 45 μL/min was used for regeneration. […] Processed sensorgrams were fitted with the Langmuir model (1:1 interaction) using ProteOn Manager 3.1.0 (Version 3.1.0.6) software.

koff: 0.000875 s⁻¹
B1: T017000354 (VHH)
VHH: EVQLVESGGGVVQPGGSLRLSCVASGAVHKINFYGWYRQAPGKEREKVAHISIGDQTDYADSAKGRFTISRDESKNMVYLQMNSLRPEDTALYFCRAMSRIWPYDYWGQGTLVTVSS

koff: 0.000346 s⁻¹
B2: T017000440 (VHH)
VHH: B1 VHH with G26W, A27D, I31L, R100K

koff: 0.00143 s⁻¹
B3: T017000505 (VHH)
VHH: B1 VHH with A27D, K30Q, I31L, Y34L, M98F, R100K, W102Y

koff: 0.00232 s⁻¹
B4: T017000531 (VHH)
VHH: B1 VHH with A27S, Y34L, Y106W

koff: 0.000523 s⁻¹
B5: T017000374 (VHH)
VHH: B1 VHH with G26Y, A27D, K30Q, R100K

koff: 0.00289 s⁻¹
B6: T017000382 (VHH)
VHH: B1 VHH with A27S, W102Y, Y106W

koff: 0.000209 s⁻¹
B7: T017000443 (VHH)
VHH: B1 VHH with G26W, A27D, K30Q, R100K, W102Y

koff: 0.000249 s⁻¹
B8: T017000378 (VHH)
VHH: B1 VHH with G26W, A27D, R100K

koff: 0.000238 s⁻¹
B9: T017000413 (VHH)
VHH: B1 VHH with G26W, A27D, K30Q, I31L, R100K

koff: 0.00106 s⁻¹
B10: T017000499 (VHH)
VHH: B1 VHH with A27Y, I31L, Y34L

koff: 0.000766 s⁻¹
B11: T017000538 (VHH)
VHH: B1 VHH with A27Y, I31L

koff: 0.00238 s⁻¹
B12: T017000473 (VHH)
VHH: B1 VHH with A27Y, K30Q, W102Y

koff: 0.000152 s⁻¹
B13: T017000379 (VHH)
VHH: B1 VHH with G26W, A27D, K30Q, R100K

koff: 0.0011 s⁻¹
B14: T017000419 (VHH)
VHH: B1 VHH with I31L

koff: 0.000401 s⁻¹
B15: T017000359 (VHH)
VHH: B1 VHH with G26W, A27D, K30Q, M98F, R100K, W102Y

koff: 0.0011 s⁻¹
B16: T017000367 (VHH)
VHH: B1 VHH with A27Y, Y34L

koff: 0.00214 s⁻¹
B17: T017000377 (VHH)
VHH: B1 VHH with G26W, A27D, W102Y

koff: 0.0026 s⁻¹
B18: T017000364 (VHH)
VHH: B1 VHH with K30Q, Y34L

koff: 0.00127 s⁻¹
B19: T017000363 (VHH)
VHH: B1 VHH with A27S, W102Y

koff: 0.00275 s⁻¹
B20: T017000521 (VHH)
VHH: B1 VHH with A27S, K30Q, I31L

koff: 0.00146 s⁻¹
B21: T017000442 (VHH)
VHH: B1 VHH with A27Y, I31L, W102Y

koff: 0.00223 s⁻¹
B22: T017000498 (VHH)
VHH: B1 VHH with Y106W

koff: 0.00152 s⁻¹
B23: T017000403 (VHH)
VHH: B1 VHH with G26W, A27D, K30Q, Y34L

koff: 0.000142 s⁻¹
B24: T017000432 (VHH)
VHH: B1 VHH with A27S, I31L, R100K

koff: 0.00263 s⁻¹
B25: T017000398 (VHH)
VHH: B1 VHH with G26Y, A27D, K30Q

koff: 0.000982 s⁻¹
B26: T017000361 (VHH)
VHH: B1 VHH with A27S, Y34L

koff: 0.00243 s⁻¹
B27: T017000360 (VHH)
VHH: B1 VHH with G26W, A27S, K30Q, I31L, R100K, W102Y, Y106W

koff: 0.000918 s⁻¹
B28: T017000415 (VHH)
VHH: B1 VHH with G26W, A27D, K30Q

koff: 0.00201 s⁻¹
B29: T017000365 (VHH)
VHH: B1 VHH with I31L, Y34L, Y106W

koff: 0.00251 s⁻¹
B30: T017000357 (VHH)
VHH: B1 VHH with A27Y, K30Q, I31L

koff: 0.000714 s⁻¹
B31: T017000408 (VHH)
VHH: B1 VHH with A27S

koff: 0.00184 s⁻¹
B32: T017000423 (VHH)
VHH: B1 VHH with A27S, K30Q, Y34L

koff: 0.00161 s⁻¹
B33: T017000391 (VHH)
VHH: B1 VHH with W102Y

koff: 0.00122 s⁻¹
B34: T017000372 (VHH)
VHH: B1 VHH with A27Y, W102Y

koff: 0.00215 s⁻¹
B35: T017000370 (VHH)
VHH: B1 VHH with K30Q

koff: 0.000609 s⁻¹
B36: T017000509 (VHH)
VHH: B1 VHH with Y34L, R100K, Y106W

koff: 0.00156 s⁻¹
B37: T017000411 (VHH)
VHH: B1 VHH with G26W, A27D

koff: 0.00126 s⁻¹
B38: T017000515 (VHH)
VHH: B1 VHH with Y34L

koff: 0.000913 s⁻¹
B39: T017000373 (VHH)
VHH: B1 VHH with A27S, I31L, Y34L

koff: 0.00383 s⁻¹
B40: T017000384 (VHH)
VHH: B1 VHH with K30Q, I31L

koff: 0.0268 s⁻¹
B41: T017000518 (VHH)
VHH: B1 VHH with G26Y, A27S, K30Q, I31L, Y34L

koff: 0.00206 s⁻¹
B42: T017000461 (VHH)
VHH: B1 VHH with A27D, K30Q

koff: 0.00155 s⁻¹
B43: T017000369 (VHH)
VHH: B1 VHH with A27S, I31L, Y106W

koff: 0.00159 s⁻¹
B44: T017000410 (VHH)
VHH: B1 VHH with A27Y, I31L, M98F, Y106W

koff: 0.00182 s⁻¹
B45: T017000530 (VHH)
VHH: B1 VHH with I31L, Y34L, G65D, W102Y

koff: 0.00187 s⁻¹
B46: T017000418 (VHH)
VHH: B1 VHH with I31L, W102Y

koff: 0.00138 s⁻¹
B47: T017000406 (VHH)
VHH: B1 VHH with A27Y, K30Q

koff: 0.00145 s⁻¹
B48: T017000355 (VHH)
VHH: B1 VHH with G26W, A27D, K30Q, I31L

koff: 0.00183 s⁻¹
B49: T017000401 (VHH)
VHH: B1 VHH with A27S, Y106W

koff: 0.00216 s⁻¹
B50: T017000381 (VHH)
VHH: B1 VHH with Y34L, W102Y

koff: 0.00206 s⁻¹
B51: T017000386 (VHH)
VHH: B1 VHH with A27S, I31L, Y34L, M98F, Y106W

koff: 0.00153 s⁻¹
B52: T017000434 (VHH)
VHH: B1 VHH with A27S, I31L, W102Y

koff: 0.000577 s⁻¹
B53: T017000362 (VHH)
VHH: B1 VHH with G26Y, A27D, R100K

koff: 0.0017 s⁻¹
B54: T017000450 (VHH)
VHH: B1 VHH with A27Y, K30Q, Y34L

koff: 0.000612 s⁻¹
B55: T017000371 (VHH)
VHH: B1 VHH with A27Y

koff: 0.00129 s⁻¹
B56: T017000368 (VHH)
VHH: B1 VHH with G26W, A27D, K30Q, W102Y

koff: 0.00089 s⁻¹
B57: T017000356 (VHH)
VHH: B1 VHH with A27S, I31L

koff: 0.00245 s⁻¹
B58: T017000397 (VHH)
VHH: B1 VHH with A27S, K30Q, I31L, Y34L
